Measured values: the Human Domainome abundance scans (Beltran et al. 2025)
± gives the uncertainty stated by the source.

B1: Serine/threonine-protein kinase A-Raf, residues 21 to 89; numbered along this chain, P10398 (parent)
chain: VKVYLPNKQRTVVTVRDGMSVYDSLDKALKVRGLNQDCCVVYRLIKGRKTVTAWDTAIAPLDGEELIVE

Variants of: B1
Assay: abundance fitness (aPCA) (normalised: wild type 0, dead -1); higher = more abundant; growth selection in yeast, the domain comes from the species named
Details: Homo sapiens

Row | Variant | abundance fitness
1 | VKVYLPNKQRTVVTVRDGMSVYDSLDKALKVRGLNQDCCVKYRLIKGRKTVTAWDTAIAPLDGEELIVE [V41K] | -0.685 ± 0.15
2 | VKVYLPNKQRTVVTVRDGMSVYDSLDKALKVRGLNQDCCVVHRLIKGRKTVTAWDTAIAPLDGEELIVE [Y42H] | -0.557 ± 0.12
3 | VKVYLPNKQRTVVTVTDGMSVYDSLDKALKVRGLNQDCCVVYRLIKGRKTVTAWDTAIAPLDGEELIVE [R16T] | -0.086 ± 0.063
4 | VKVYLPNKQRTVVTVRDGMSVYDSLDKALKVRGLNQDCCVVYRLIVGRKTVTAWDTAIAPLDGEELIVE [K46V] | -0.792 ± 0.089
5 | VKVCLPNKQRTVVTVRDGMSVYDSLDKALKVRGLNQDCCVVYRLIKGRKTVTAWDTAIAPLDGEELIVE [Y4C] | -0.366 ± 0.098
6 | VKVYLPNKQRTVVTVRDGMSVYDSLDKALKVRGLNQDCCVVYRLIKGRKTVTAWDTAIVPLDGEELIVE [A59V] | -0.122 ± 0.041
7 | VKVYLPNKQLTVVTVRDGMSVYDSLDKALKVRGLNQDCCVVYRLIKGRKTVTAWDTAIAPLDGEELIVE [R10L] | -0.059 ± 0.047
8 | VKVYLPNKQRTVVTVRDGMSVYDSLDKALKVRGLNQDCCVVYRLIKGRKTVTAWDTAIAPPDGEELIVE [L61P] | -0.631 ± 0.38
9 | VKVYLPNKQRTVVTVRDGMSVYDSLDKALKVRGLNQDCCVVYRLIKGRKTVTAWDFAIAPLDGEELIVE [T56F] | -0.693 ± 0.17
10 | VKVYLPNKQRTVVTVRDGMSVYDSLDKAAKVRGLNQDCCVVYRLIKGRKTVTAWDTAIAPLDGEELIVE [L29A] | -0.933 ± 0.18
11 | VKVYLPNKQRTVVTVRDGMSVYDSLDKALKGRGLNQDCCVVYRLIKGRKTVTAWDTAIAPLDGEELIVE [V31G] | -0.086 ± 0.04
12 | VKVYLPNKQRKVVTVRDGMSVYDSLDKALKVRGLNQDCCVVYRLIKGRKTVTAWDTAIAPLDGEELIVE [T11K] | -0.371 ± 0.079
13 | VKVYLPNKQRTVVTVRDGMSVYDSLDKALKVRGLNQDCCQVYRLIKGRKTVTAWDTAIAPLDGEELIVE [V40Q] | 0.073 ± 0.14
14 | VKVYLPNKQRTVVTVRDGMSVYDSLDKALKVRGLNQDCCVVYRLIKGRKTVTAWDTAIAPLDGEPLIVE [E65P] | -0.26 ± 0.12
15 | VKVYLPNKQRTVVTVRDGMSVYDSLDKALKVRGLNQDCCVVYRLIKGRKTVTAWDDAIAPLDGEELIVE [T56D] | -0.069 ± 0.069
16 | VKVYLPNKQRTVVTVRDMMSVYDSLDKALKVRGLNQDCCVVYRLIKGRKTVTAWDTAIAPLDGEELIVE [G18M] | -0.89 ± 0.15
17 | VNVYLPNKQRTVVTVRDGMSVYDSLDKALKVRGLNQDCCVVYRLIKGRKTVTAWDTAIAPLDGEELIVE [K2N] | -0.139 ± 0.17
18 | VKWYLPNKQRTVVTVRDGMSVYDSLDKALKVRGLNQDCCVVYRLIKGRKTVTAWDTAIAPLDGEELIVE [V3W] | -0.877 ± 0.1
19 | VKVYLPNKQRTVLTVRDGMSVYDSLDKALKVRGLNQDCCVVYRLIKGRKTVTAWDTAIAPLDGEELIVE [V13L] | -0.202 ± 0.048
20 | VKVYLPNKQRTVVTVRDGMSVYDSLDKALKVRGLNQDCCVVYRLIKGRKTVQAWDTAIAPLDGEELIVE [T52Q] | -0.317 ± 0.089

Row | Variant | abundance fitness
21 | VKVYLPNKQRTVVTVRDGMSVYDSLDKALKVRGLNQDCCVVYRLIKGRKTVTAWSTAIAPLDGEELIVE [D55S] | -0.168 ± 0.036
22 | VKVYLPNKQRTVVTVRDGMSVYDSLDKQLKVRGLNQDCCVVYRLIKGRKTVTAWDTAIAPLDGEELIVE [A28Q] | -0.438 ± 0.096
23 | VKVYLPNKQRTVVTVRDGMSVYDSLDKALKVRDLNQDCCVVYRLIKGRKTVTAWDTAIAPLDGEELIVE [G33D] | -0.416 ± 0.2
24 | VKVYLPNKQRTVVTVRDGMSVSDSLDKALKVRGLNQDCCVVYRLIKGRKTVTAWDTAIAPLDGEELIVE [Y22S] | 0.094 ± 0.053
25 | VKVYLPNKQRTVVTVRDGMSVYDSLDKALKVRGLNQDCCVVYRLIKGRKTVTAWDRAIAPLDGEELIVE [T56R] | -0.276 ± 0.029
26 | VKVYLPNKQRTVVTVRDGMSVYDSLDKALKVRGLNQDCCTVYRLIKGRKTVTAWDTAIAPLDGEELIVE [V40T] | -0.164 ± 0.072
27 | VKVYLPNKQRTVVTVRDGMSVYDSLDKALKVRGLNQDCCVVYRLIKLRKTVTAWDTAIAPLDGEELIVE [G47L] | -0.873 ± 0.091
28 | VKVYLPNKQRTVVTVRDGMSVYDSLDKALKVRGLNQDCCGVYRLIKGRKTVTAWDTAIAPLDGEELIVE [V40G] | -0.857 ± 0.094
29 | VKVYLPNKQRTVVTVRDGMSVYDCLDKALKVRGLNQDCCVVYRLIKGRKTVTAWDTAIAPLDGEELIVE [S24C] | 0.11 ± 0.093
30 | VKVYLPNKQRTVVTVRDGASVYDSLDKALKVRGLNQDCCVVYRLIKGRKTVTAWDTAIAPLDGEELIVE [M19A] | -0.17 ± 0.062
31 | VKVYLPNKQRTVVTVRDGMSVYDSLDKALKVRRLNQDCCVVYRLIKGRKTVTAWDTAIAPLDGEELIVE [G33R] | -0.712 ± 0.081
32 | VKVYLPNKQRTVVTVRDGMSVYDSLDKALKVRGLNQDCCVVYRLIKGRKTVTAWDTAIAPKDGEELIVE [L61K] | -0.142 ± 0.066
33 | VKVDLPNKQRTVVTVRDGMSVYDSLDKALKVRGLNQDCCVVYRLIKGRKTVTAWDTAIAPLDGEELIVE [Y4D] | -0.601 ± 0.11
34 | VKVYLPNKQRTVVTVRDGMSVYDSLDKALKVRGLTQDCCVVYRLIKGRKTVTAWDTAIAPLDGEELIVE [N35T] | 0.025 ± 0.064
35 | VKVYLPNKQRTVVTVRDGMLVYDSLDKALKVRGLNQDCCVVYRLIKGRKTVTAWDTAIAPLDGEELIVE [S20L] | -0.91 ± 0.093
36 | VKVYLPNKQRTVVTVRDGMSVYDSLDKALKVRGLNQDCCVVYRLIKGRKTVTAWDTAIAPLDGEELIVI [E69I] | -0.81 ± 0.33
37 | VKVYLPNKQRTVVTVRDGMSVYVSLDKALKVRGLNQDCCVVYRLIKGRKTVTAWDTAIAPLDGEELIVE [D23V] | -0.389 ± 0.039
38 | VKVYLPNKQRTVVTVRDGWSVYDSLDKALKVRGLNQDCCVVYRLIKGRKTVTAWDTAIAPLDGEELIVE [M19W] | -0.053 ± 0.05
39 | VKVYLPNKQRTVVTVRDGMSVYDSLDKALKVRGLNQDCCVVYRLIKGRKTVTAWDTAIAPDDGEELIVE [L61D] | -0.365 ± 0.23
